According to patent US20250136721A1 (GlaxoSmithKline, published 2025):
Read-outs that look alike come from different tables or passages of the source.

Columns and labels:
[1] = target: pre-existing anti-VH ADA in human serum; test: ADA confirmation assay (MSD): 10 ug/mL test material against labelled DOM1H-131-206, mean of 10 sera
[2] = target: pre-existing anti-VH ADA in human serum; test: as above; remark: listed apart in the source
[3] = target: pre-existing anti-VH ADA in human serum; test: ADA confirmation assay (MSD): 10 ug/mL test material against labelled DOM1H-131-206; share of 10 ADA-positive sera with binding
[4] = target: pre-existing anti-VH ADA in human serum; test: as above; remark: listed apart in the source

B1: DOM1H-131-206 C-terminal ASTKG (protein)
VH: EVQLLESGGGLVQPGGSLRLSCAASGFTFAHETMVWVRQAPGKGLEWVSHIPPDGQDPFYADSVKGRFTISRDNSKNTLYLQMNSLRAEDTAVYHCALLPKRGPWFDYWGQGTLVTVSSASTKG
B1 gave a Mean % inhibition of signal in confirmation assay [1] of 28.3%, a Mean % inhibition of signal in confirmation assay [2] of 1.77% and a % subjects with ADA binding (10 subjects) (% of subjects) [3] of 40.

B2: DOM1H-131-206 P14A + C-terminal ASTKG (protein)
VH: EVQLLESGGGLVQAGGSLRLSCAASGFTFAHETMVWVRQAPGKGLEWVSHIPPDGQDPFYADSVKGRFTISRDNSKNTLYLQMNSLRAEDTAVYHCALLPKRGPWFDYWGQGTLVTVSSASTKG
B2 gave a Mean % inhibition of signal in confirmation assay [2] of 11.9%.

B3: DOM1H-131-206 P14Q + C-terminal ASTKG (protein, name in Kabat numbering)
VH: EVQLLESGGGLVQQGGSLRLSCAASGFTFAHETMVWVRQAPGKGLEWVSHIPPDGQDPFYADSVKGRFTISRDNSKNTLYLQMNSLRAEDTAVYHCALLPKRGPWFDYWGQGTLVTVSSASTKG
B3 showed a % subjects with ADA binding (10 subjects) (% of subjects) [4] of 10 and a Mean % inhibition of signal in confirmation assay [2] of 21.8%.

B4: DOM1H-131-206 P14T + C-terminal ASTKG (protein, name in Kabat numbering)
VH: EVQLLESGGGLVQTGGSLRLSCAASGFTFAHETMVWVRQAPGKGLEWVSHIPPDGQDPFYADSVKGRFTISRDNSKNTLYLQMNSLRAEDTAVYHCALLPKRGPWFDYWGQGTLVTVSSASTKG
For B4, the Mean % inhibition of signal in confirmation assay [2] was 17.2%.

B5: DOM1H-131-206 P14K + C-terminal ASTKG (protein, name in Kabat numbering)
VH: EVQLLESGGGLVQKGGSLRLSCAASGFTFAHETMVWVRQAPGKGLEWVSHIPPDGQDPFYADSVKGRFTISRDNSKNTLYLQMNSLRAEDTAVYHCALLPKRGPWFDYWGQGTLVTVSSASTKG
With B5 the % subjects with ADA binding (10 subjects) (% of subjects) [4] was 10 and the Mean % inhibition of signal in confirmation assay [2] was 25%.

B6: DOM1H-131-206 C-terminal AST (protein)
VH: EVQLLESGGGLVQPGGSLRLSCAASGFTFAHETMVWVRQAPGKGLEWVSHIPPDGQDPFYADSVKGRFTISRDNSKNTLYLQMNSLRAEDTAVYHCALLPKRGPWFDYWGQGTLVTVSSAST
In the case of B6, the % subjects with ADA binding (10 subjects) (% of subjects) [4] is reported as 20, the Mean % inhibition of signal in confirmation assay [1] is reported as 26.4% and the Mean % inhibition of signal in confirmation assay [2] is reported as 35%. The % subjects with ADA binding (10 subjects) (% of subjects) [3] was 50.

B7: DT04-H-033 C-terminal A (protein)
VH: EVQLLESGGGLVQPGGSLRLSCAASGFTFADYGMAWVRQAPGKGLEWVSTISYNGLYTYYADSVKGRTISRDNSKNTLYLQMNSLRAEDTAVYYCAKYEYSPESDFDYWGQGTLVTVSSA
B7 was tested, and the Mean % inhibition of signal in confirmation assay [1] was 12.5%.

B8: DOM1H-131-206 C-terminal AS (protein)
VH: EVQLLESGGGLVQPGGSLRLSCAASGFTFAHETMVWVRQAPGKGLEWVSHIPPDGQDPFYADSVKGRFTISRDNSKNTLYLQMNSLRAEDTAVYHCALLPKRGPWFDYWGQGTLVTVSSAS
B8 was tested, and the Mean % inhibition of signal in confirmation assay [1] was 16.3%.

B9: DOM1H-131-206 L108Q (protein, name in Kabat numbering)
VH: EVQLLESGGGLVQPGGSLRLSCAASGFTFAHETMVWVRQAPGKGLEWVSHIPPDGQDPFYADSVKGRFTISRDNSKNTLYLQMNSLRAEDTAVYHCALLPKRGPWFDYWGQGTQVTVSS
B9 showed a Mean % inhibition of signal in confirmation assay [1] of 90.9% and a % subjects with ADA binding (10 subjects) (% of subjects) [3] of 100.

B10: DOM1H-131-206 L11A (protein, name in Kabat numbering)
VH: EVQLLESGGGAVQPGGSLRLSCAASGFTFAHETMVWVRQAPGKGLEWVSHIPPDGQDPFYADSVKGRFTISRDNSKNTLYLQMNSLRAEDTAVYHCALLPKRGPWFDYWGQGTLVTVSS
B10 was tested, and the % subjects with ADA binding (10 subjects) (% of subjects) [4] was 100 and the Mean % inhibition of signal in confirmation assay [2] was 98%.

B11: DOM1H-131-206 S112A (protein, name in Kabat numbering)
VH: EVQLLESGGGLVQPGGSLRLSCAASGFTFAHETMVWVRQAPGKGLEWVSHIPPDGQDPFYADSVKGRFTISRDNSKNTLYLQMNSLRAEDTAVYHCALLPKRGPWFDYWGQGTLVTVAS
In the case of B11, the % subjects with ADA binding (10 subjects) (% of subjects) [4] is reported as 80 and the Mean % inhibition of signal in confirmation assay [2] is reported as 77.1%.

B12: DOM1H-131-206 P14Q (protein, name in Kabat numbering)
VH: EVQLLESGGGLVQQGGSLRLSCAASGFTFAHETMVWVRQAPGKGLEWVSHIPPDGQDPFYADSVKGRFTISRDNSKNTLYLQMNSLRAEDTAVYHCALLPKRGPWFDYWGQGTLVTVSS
Binder B12 has a % subjects with ADA binding (10 subjects) (% of subjects) [4] of 60 and a Mean % inhibition of signal in confirmation assay [2] of 52.9%.

B13: DOM1H-131-206 L108A (protein, name in Kabat numbering)
VH: EVQLLESGGGLVQPGGSLRLSCAASGFTFAHETMVWVRQAPGKGLEWVSHIPPDGQDPFYADSVKGRFTISRDNSKNTLYLQMNSLRAEDTAVYHCALLPKRGPWFDYWGQGTAVTVSS
In the case of B13, the % subjects with ADA binding (10 subjects) (% of subjects) [4] is reported as 100 and the Mean % inhibition of signal in confirmation assay [2] is reported as 94.3%.

B14: DOM1H-131-206 P14T (protein, name in Kabat numbering)
VH: EVQLLESGGGLVQTGGSLRLSCAASGFTFAHETMVWVRQAPGKGLEWVSHIPPDGQDPFYADSVKGRFTISRDNSKNTLYLQMNSLRAEDTAVYHCALLPKRGPWFDYWGQGTLVTVSS
B14 showed a % subjects with ADA binding (10 subjects) (% of subjects) [4] of 100 and a Mean % inhibition of signal in confirmation assay [2] of 68.9%.

B15: DOM1H-131-206 Q13A (protein, name in Kabat numbering)
VH: EVQLLESGGGLVAPGGSLRLSCAASGFTFAHETMVWVRQAPGKGLEWVSHIPPDGQDPFYADSVKGRFTISRDNSKNTLYLQMNSLRAEDTAVYHCALLPKRGPWFDYWGQGTLVTVSS
B15 showed a Mean % inhibition of signal in confirmation assay [1] of 99.2% and a % subjects with ADA binding (10 subjects) (% of subjects) [3] of 100.

B16: DOM1H-131-206 P14E (protein, name in Kabat numbering)
VH: EVQLLESGGGLVQEGGSLRLSCAASGFTFAHETMVWVRQAPGKGLEWVSHIPPDGQDPFYADSVKGRFTISRDNSKNTLYLQMNSLRAEDTAVYHCALLPKRGPWFDYWGQGTLVTVSS
B16 showed a % subjects with ADA binding (10 subjects) (% of subjects) [4] of 60 and a Mean % inhibition of signal in confirmation assay [2] of 47.2%.

B17: DOM1H-131-206 T110A (protein, name in Kabat numbering)
VH: EVQLLESGGGLVQPGGSLRLSCAASGFTFAHETMVWVRQAPGKGLEWVSHIPPDGQDPFYADSVKGRFTISRDNSKNTLYLQMNSLRAEDTAVYHCALLPKRGPWFDYWGQGTLVAVSS
For B17, the % subjects with ADA binding (10 subjects) (% of subjects) [4] was 100 and the Mean % inhibition of signal in confirmation assay [2] was 78.8%.

B18: DOM1H-131-206 P14A (protein)
VH: EVQLLESGGGLVQAGGSLRLSCAASGFTFAHETMVWVRQAPGKGLEWVSHIPPDGQDPFYADSVKGRFTISRDNSKNTLYLQMNSLRAEDTAVYHCALLPKRGPWFDYWGQGTLVTVSS
B18 gave a Mean % inhibition of signal in confirmation assay [1] of 58.3% and a % subjects with ADA binding (10 subjects) (% of subjects) [3] of 100.

B19: DOM1H-131-206 P14K (protein, name in Kabat numbering)
VH: EVQLLESGGGLVQKGGSLRLSCAASGFTFAHETMVWVRQAPGKGLEWVSHIPPDGQDPFYADSVKGRFTISRDNSKNTLYLQMNSLRAEDTAVYHCALLPKRGPWFDYWGQGTLVTVSS
B19 gave a % subjects with ADA binding (10 subjects) (% of subjects) [4] of 50 and a Mean % inhibition of signal in confirmation assay [2] of 46.7%.

B20: DOM1H-131-206 C-terminal ASTK (protein)
VH: EVQLLESGGGLVQPGGSLRLSCAASGFTFAHETMVWVRQAPGKGLEWVSHIPPDGQDPFYADSVKGRFTISRDNSKNTLYLQMNSLRAEDTAVYHCALLPKRGPWFDYWGQGTLVTVSSASTK
B20 gave a Mean % inhibition of signal in confirmation assay [1] of 19.6% and a % subjects with ADA binding (10 subjects) (% of subjects) [3] of 40.

B21: DT04-H-033 C-terminal AS (protein)
VH: EVQLLESGGGLVQPGGSLRLSCAASGFTFADYGMAWVRQAPGKGLEWVSTISYNGLYTYYADSVKGRTISRDNSKNTLYLQMNSLRAEDTAVYYCAKYEYSPESDFDYWGQGTLVTVSSAS
B21 gave a Mean % inhibition of signal in confirmation assay [1] of 8.26%.

B22: DOM1H-131-206 P14K + C-terminal A (protein, name in Kabat numbering)
VH: EVQLLESGGGLVQKGGSLRLSCAASGFTFAHETMVWVRQAPGKGLEWVSHIPPDGQDPFYADSVKGRFTISRDNSKNTLYLQMNSLRAEDTAVYHCALLPKRGPWFDYWGQGTLVTVSSA
Binder B22 has a % subjects with ADA binding (10 subjects) (% of subjects) [4] of 10 and a Mean % inhibition of signal in confirmation assay [2] of 29.1%.

B23: DOM1H-131-206 P14A + C-terminal A (protein)
VH: EVQLLESGGGLVQAGGSLRLSCAASGFTFAHETMVWVRQAPGKGLEWVSHIPPDGQDPFYADSVKGRFTISRDNSKNTLYLQMNSLRAEDTAVYHCALLPKRGPWFDYWGQGTLVTVSSA
With B23 the Mean % inhibition of signal in confirmation assay [2] was 8.76%.

B24: DOM1H-131-206 P14T + C-terminal A (protein, name in Kabat numbering)
VH: EVQLLESGGGLVQTGGSLRLSCAASGFTFAHETMVWVRQAPGKGLEWVSHIPPDGQDPFYADSVKGRFTISRDNSKNTLYLQMNSLRAEDTAVYHCALLPKRGPWFDYWGQGTLVTVSSA
Binder B24 has a % subjects with ADA binding (10 subjects) (% of subjects) [4] of 20 and a Mean % inhibition of signal in confirmation assay [2] of 33%.

B25: DOM1H-131-206 P14Q + C-terminal A (protein, name in Kabat numbering)
VH: EVQLLESGGGLVQQGGSLRLSCAASGFTFAHETMVWVRQAPGKGLEWVSHIPPDGQDPFYADSVKGRFTISRDNSKNTLYLQMNSLRAEDTAVYHCALLPKRGPWFDYWGQGTLVTVSSA
B25 showed a % subjects with ADA binding (10 subjects) (% of subjects) [4] of 20 and a Mean % inhibition of signal in confirmation assay [2] of 29.7%.

B26: DT04-H-033 C-terminal AAA (protein)
VH: EVQLLESGGGLVQPGGSLRLSCAASGFTFADYGMAWVRQAPGKGLEWVSTISYNGLYTYYADSVKGRTISRDNSKNTLYLQMNSLRAEDTAVYYCAKYEYSPESDFDYWGQGTLVTVSSAAA
Work on B26 yielded a Mean % inhibition of signal in confirmation assay [1] of 11%.

B27: DT04-H-033 C-terminal AST (protein)
VH: EVQLLESGGGLVQPGGSLRLSCAASGFTFADYGMAWVRQAPGKGLEWVSTISYNGLYTYYADSVKGRTISRDNSKNTLYLQMNSLRAEDTAVYYCAKYEYSPESDFDYWGQGTLVTVSSAST
Work on B27 yielded a Mean % inhibition of signal in confirmation assay [1] of 14%.

B28: DOM1H-131-206 C-terminal S deletion (ΔS) (protein)
VH: EVQLLESGGGLVQPGGSLRLSCAASGFTFAHETMVWVRQAPGKGLEWVSHIPPDGQDPFYADSVKGRFTISRDNSKNTLYLQMNSLRAEDTAVYHCALLPKRGPWFDYWGQGTLVTVS
For B28, the % subjects with ADA binding (10 subjects) (% of subjects) [4] was 40 and the Mean % inhibition of signal in confirmation assay [2] was 44.7%.
